Experimental data published in patent US20250000950A1, “PRESERVED FORMULATIONS” (ELI LILLY AND COMPANY, priority 2021, published 2025).

How the values were obtained:
[1] = Onset of melting temperature (Tm, Onset) by differential scanning calorimetry (DSC); format: physicochemical; conditions: BIF 2 mg/mL
Description: Biophysical developability/high-throughput profiling studies are conducted on 2 mg/mL formulations of BIF in different buffer matrices and pH conditions. The onset of melting temperature Tm (Tm, Onset) was measured using differential scanning calorimetry (DSC). Tm, Onset is the temperature at which a folded protein starts to lose its native conformation, i.e., the higher the Tm, Onset, the less susceptible a protein to denaturation.

[2] = Isoelectric point of BIF; format: physicochemical

B1: insulin efsitora alfa (protein)
chain: FVNQHLCGSHLVEALELVCGERGFHYGGGGGGSGGGGGIVEQCCTSTCSLDQLENYCGGGGGQGGGGQGGGGQGGGGGECPPCPAPPVAGPSVFLFPPKPKDTLMISRTPEVTCVVVDVSHEDPEVQFNWYVDGVEVHNAKTKPREEQFNSTFRVVSVLTVVHQDWLNGKEYKCKVSNKGLPAPIEKTISKTKGQPREPQVYTLPPSREEMTKNQVSLTCLVKGFYPSDIAVEWESNGQPENNYKTTPPMLDSDGSFFLYSKLTVDKSRWQQGNVFSCSVMHEALHNHYTQKSLSLSPG
modifications: homodimer
notes: dimer of an insulin receptor agonist fused to a human IgG Fc region
Tm, Onset ([1]; Citrate 10 mM, NaCl 25 mM, pH 5.5): 60.29 °C | Tm, Onset ([1]; Citrate 10 mM, NaCl 25 mM, pH 6.0): 63.58 °C | Tm, Onset ([1]; Citrate 10 mM, NaCl 25 mM, pH 6.5): 65.61 °C | Tm, Onset ([1]; Citrate 10 mM, NaCl 25 mM, pH 7.0): 66.32 °C | Tm, Onset ([1]; Citrate 10 mM, NaCl 150 mM, pH 5.5): 59.59 °C | Tm, Onset ([1]; Citrate 10 mM, NaCl 150 mM, pH 6.0): 62.78 °C | Tm, Onset ([1]; Citrate 10 mM, NaCl 150 mM, pH 6.5): 64.76 °C | Tm, Onset ([1]; Citrate 10 mM, NaCl 150 mM, pH 7.0): 65.41 °C | Tm, Onset ([1]; Phosphate 10 mM, NaCl 25 mM, pH 6.0): 62.86 °C | Tm, Onset ([1]; Phosphate 10 mM, NaCl 25 mM, pH 6.5): 64.06 °C | Tm, Onset ([1]; Phosphate 10 mM, NaCl 25 mM, pH 7.0): 66.39 °C | Tm, Onset ([1]; Phosphate 10 mM, NaCl 25 mM, pH 7.5): 66.90 °C | Tm, Onset ([1]; Phosphate 10 mM, NaCl 150 mM, pH 6.0): 63.36 °C | Tm, Onset ([1]; Phosphate 10 mM, NaCl 150 mM, pH 6.5): 64.42 °C | Tm, Onset ([1]; Phosphate 10 mM, NaCl 150 mM, pH 7.0): 65.79 °C | Tm, Onset ([1]; Phosphate 10 mM, NaCl 150 mM, pH 7.5): 66.11 °C | pl (isoelectric point) of BIF [2]: ≈ 6.1
